According to PMC8667049:

Tests used:
GST-IRP1 = target: T1, GST-IRP1 (Homo sapiens, UniProt P21399 1-889); test: EMSA
T1 sequence: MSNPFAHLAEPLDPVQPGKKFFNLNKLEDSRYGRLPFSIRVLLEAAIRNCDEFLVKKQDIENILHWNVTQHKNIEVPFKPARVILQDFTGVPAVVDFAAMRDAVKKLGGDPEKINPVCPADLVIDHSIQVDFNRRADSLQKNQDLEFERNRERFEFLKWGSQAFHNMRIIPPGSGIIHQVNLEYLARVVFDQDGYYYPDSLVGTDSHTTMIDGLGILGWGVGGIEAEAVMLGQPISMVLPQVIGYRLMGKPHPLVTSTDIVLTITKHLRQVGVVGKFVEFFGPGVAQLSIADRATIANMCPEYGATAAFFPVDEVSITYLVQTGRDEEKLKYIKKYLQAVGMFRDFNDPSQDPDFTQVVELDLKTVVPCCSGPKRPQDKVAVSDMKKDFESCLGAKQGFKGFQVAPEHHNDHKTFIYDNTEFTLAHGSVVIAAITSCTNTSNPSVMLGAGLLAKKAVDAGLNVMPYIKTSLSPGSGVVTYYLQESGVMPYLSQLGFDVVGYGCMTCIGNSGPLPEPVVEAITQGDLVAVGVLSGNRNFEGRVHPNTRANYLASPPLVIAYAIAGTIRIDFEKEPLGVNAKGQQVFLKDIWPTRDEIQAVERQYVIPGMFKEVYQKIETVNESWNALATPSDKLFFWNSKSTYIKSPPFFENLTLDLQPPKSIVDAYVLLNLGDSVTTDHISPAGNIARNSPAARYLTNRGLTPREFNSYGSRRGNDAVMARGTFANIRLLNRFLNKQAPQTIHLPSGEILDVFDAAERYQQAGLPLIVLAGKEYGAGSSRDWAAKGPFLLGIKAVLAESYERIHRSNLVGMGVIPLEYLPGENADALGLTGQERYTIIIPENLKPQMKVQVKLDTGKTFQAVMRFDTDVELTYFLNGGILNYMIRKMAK

GST-IRP2 = target: T2, GST-IRP2 (Homo sapiens, UniProt P48200 1-963); test: EMSA
T2 sequence: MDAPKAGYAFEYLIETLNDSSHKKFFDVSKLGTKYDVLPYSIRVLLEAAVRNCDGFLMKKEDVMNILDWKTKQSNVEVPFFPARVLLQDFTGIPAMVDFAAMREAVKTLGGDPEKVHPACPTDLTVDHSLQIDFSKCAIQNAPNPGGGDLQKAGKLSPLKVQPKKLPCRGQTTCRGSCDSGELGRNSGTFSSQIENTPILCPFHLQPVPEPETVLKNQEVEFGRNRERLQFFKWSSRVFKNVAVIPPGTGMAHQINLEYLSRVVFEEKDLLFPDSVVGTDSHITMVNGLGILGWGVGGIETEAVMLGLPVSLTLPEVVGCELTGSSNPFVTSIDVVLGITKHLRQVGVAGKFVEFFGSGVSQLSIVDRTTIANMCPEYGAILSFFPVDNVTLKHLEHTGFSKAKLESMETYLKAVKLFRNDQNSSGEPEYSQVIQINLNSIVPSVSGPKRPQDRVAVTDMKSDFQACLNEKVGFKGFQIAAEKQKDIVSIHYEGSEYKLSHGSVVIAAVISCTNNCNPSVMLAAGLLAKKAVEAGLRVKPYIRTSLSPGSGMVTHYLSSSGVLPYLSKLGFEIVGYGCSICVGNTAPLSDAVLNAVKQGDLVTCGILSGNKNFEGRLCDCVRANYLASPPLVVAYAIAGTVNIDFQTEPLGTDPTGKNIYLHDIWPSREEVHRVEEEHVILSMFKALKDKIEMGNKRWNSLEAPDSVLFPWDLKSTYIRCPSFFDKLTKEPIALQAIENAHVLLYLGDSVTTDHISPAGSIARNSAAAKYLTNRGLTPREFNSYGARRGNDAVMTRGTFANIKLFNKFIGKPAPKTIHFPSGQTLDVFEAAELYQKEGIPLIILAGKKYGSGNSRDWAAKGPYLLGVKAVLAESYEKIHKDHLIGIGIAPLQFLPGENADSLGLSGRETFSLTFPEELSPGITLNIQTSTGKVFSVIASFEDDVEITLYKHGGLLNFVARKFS

B1: CD63 5' UTR IRE (structured_RNA)
RNA: GAGGGGGCUUGCACAGAGUUGGAGCCAGAGG
B1: binds (GST-IRP1); binds (GST-IRP2).

B2: non-IRE control RNA (ssRNA)
RNA: CCUGGUUUUUAAGGAGUGUCGCCAGAGUGCCGCGAAUGAAAAA
B2: no binding (GST-IRP1); no binding (GST-IRP2).
